According to paper PMC5155159:

Legend:
[1] = target: T1, Dicer TN (catalytically inactive), without ectopic TRBP;TRBP full length (D1-D2-D3) (UniProt Q9UPY3+Q15633); assay: single-molecule TIRF, two-color; details: amine-modified U69 (dye), 20 mM Tris pH 8.0, 200 mM KCl, 0.2 mM EDTA, glucose oxidase/catalase oxygen scavenger, 1 mM Trolox, 200 pM labelled RNA (200 nM in Methods), Mg2+ where …
[2] = target: Dicer TN (catalytically inactive), without ectopic TRBP (UniProt Q9UPY3); assay: single-molecule TIRF competition; details: 1 uM competitor tRNA; WT or TN form not given; amine-modified U69 (dye); 20 mM Tris pH 8.0, 200 mM KCl, 0.2 mM EDTA, glucose oxidase/catalase oxygen scavenger, 1 mM Trolox; 200 pM labelled RNA (200 nM in Methods); Mg2+ where …
[3] = target: Dicer TN (catalytically inactive), without ectopic TRBP;TRBP D2-D3 (UniProt Q9UPY3+Q15633); assay: single-molecule TIRF competition; details: 1 uM competitor tRNA; WT or TN form not given; amine-modified U69 (dye); 20 mM Tris pH 8.0, 200 mM KCl, 0.2 mM EDTA, glucose oxidase/catalase oxygen scavenger, 1 mM Trolox; 200 pM labelled RNA (200 nM in Methods); Mg2+ where …
[4] = target: Dicer TN (catalytically inactive), without ectopic TRBP;TRBP D3 (UniProt Q9UPY3+Q15633); assay: single-molecule TIRF competition; details: 1 uM competitor tRNA; WT or TN form not given; amine-modified U69 (dye); 20 mM Tris pH 8.0, 200 mM KCl, 0.2 mM EDTA, glucose oxidase/catalase oxygen scavenger, 1 mM Trolox; 200 pM labelled RNA (200 nM in Methods); Mg2+ where …
[5] = target: T1, Dicer TN (catalytically inactive), without ectopic TRBP;TRBP full length (D1-D2-D3); assay: single-molecule TIRF competition; details: 1 uM competitor tRNA; WT or TN form not given; amine-modified U69 (dye); 20 mM Tris pH 8.0, 200 mM KCl, 0.2 mM EDTA, glucose oxidase/catalase oxygen scavenger, 1 mM Trolox; 200 pM labelled RNA (200 nM in Methods); Mg2+ where …
[6] = target: Dicer TN (catalytically inactive), without ectopic TRBP (UniProt Q9UPY3); assay: single-molecule TIRF; details: amine-modified U69 (dye), 20 mM Tris pH 8.0, 200 mM KCl, 0.2 mM EDTA, glucose oxidase/catalase oxygen scavenger, 1 mM Trolox, 200 pM labelled RNA (200 nM in Methods), Mg2+ where …
[7] = target: T1, Dicer TN (catalytically inactive), without ectopic TRBP;TRBP full length (D1-D2-D3); assay: single-molecule TIRF; details: amine-modified U69 (dye), 20 mM Tris pH 8.0, 200 mM KCl, 0.2 mM EDTA, glucose oxidase/catalase oxygen scavenger, 1 mM Trolox, 200 pM labelled RNA (200 nM in Methods), Mg2+ where …
TRBP recombinant = target: T2, TRBP recombinant (UniProt Q15633); assay: single-molecule TIRF; details: amine-modified U69 (dye), 20 mM Tris pH 8.0, 200 mM KCl, 0.2 mM EDTA, glucose oxidase/catalase oxygen scavenger, 1 mM Trolox, 200 pM labelled RNA (200 nM in Methods), Mg2+ where …
T2 sequence: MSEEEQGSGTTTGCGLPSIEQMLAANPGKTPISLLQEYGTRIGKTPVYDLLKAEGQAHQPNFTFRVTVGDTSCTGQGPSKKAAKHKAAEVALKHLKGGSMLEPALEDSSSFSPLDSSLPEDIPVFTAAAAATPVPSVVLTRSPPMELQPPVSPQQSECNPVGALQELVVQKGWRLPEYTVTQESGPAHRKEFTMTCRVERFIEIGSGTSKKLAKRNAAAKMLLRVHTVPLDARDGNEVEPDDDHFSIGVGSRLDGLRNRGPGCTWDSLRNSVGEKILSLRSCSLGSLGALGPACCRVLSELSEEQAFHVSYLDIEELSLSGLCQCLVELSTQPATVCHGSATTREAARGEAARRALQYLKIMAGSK

[8] = equivalent IP amount, WT or TN form not given

UGAGGUAGUAGGUUGUAUAGUUUUAGGGUCACACCCACCACUGGGAGAUAACUAUACAAUCUACUGUCUUUCU [pre-let-7a-1 3' 2nt (standard)]
binding signal (binding events) ([1]; with N2 at equal concentration, 57.7% long binding): 7410 | binding signal (s (long dwell time)) ([1]; with N3, 54.7% long, short 1.4 +/- 0.3 s): 17 | binding signal (binding events) ([1]; with N4, long 19.1 s, short 3.0 +/- 1.05 s, 54.0%): 8050 | binding signal (% inhibition of binding) [2]: 77.9 | binding signal (% inhibition of binding) [3]: 29 | binding signal (% inhibition of binding) [4]: 83 | binding signal (% inhibition of binding) [5]: 6.1 | binding signal (s (long dwell time)) ([6]; 43.1% long, short 2.8 +/- 0.7 s, 56.9%, panel assignment from figure order): 21.9 | binding signal (bound spots per field) [6, 8]: 58 | binding signal (s (long dwell time)) ([7]; 48.1% long, short 1.5 +/- 0.4 s, 51.9%): 13.9 | binding signal (bound spots per field) [7, 8]: 781 | binding signal (s (dwell time)) (TRBP recombinant; 200 pM RNA): 120

UGAGGUAGUAGGUUGUAUAGUUUUAGGGUCACACCCACCACUGGGAGAUAACUAUACAAUCUACUGUCUUUC [pre-let-7a-1 3' 1nt]
binding signal (binding events) ([1]; 2.9x fewer than N1, 55.6% long, 25.3 +/- 2.9 s, short 3.7 +/- 0.8 s): 2750

UGAGGUAGUAGGUUGUAUAGUUUUAGGGUCACACCCACCACUGGGAGAUAACUAUACAAUCUACUGUCUUUCUUUUUUUUUUUUUUUUUUUUUUUUUUUUUUUUUUUUUUUUUUUUUUUUU [pre-let-7a-1 3' U49]
binding signal (binding events) ([1]; 2.5x fewer than N1, 31.0% long, 11.0 +/- 2.3 s, short 1.2 +/- 0.2 s): 2040 | binding signal (s (dwell time)) (TRBP recombinant; no difference from N1): 120

UGAGGUAGUAGGUUGUAUAGUUUUAGGGUCACACCCACCACUGGGAGAUAACUAUACAAUCUACUGUCUUUCU [pre-let-7a-1 3' 2nt-biotin]
binding signal (binding events) ([1]; 3'-biotin): 2340 | binding signal (binding events) ([6]; five times more than Dicer-TRBP, 56.7% long, 34.0 +/- 5.6 s, 3'-biotin): 1780 | binding signal (binding events) ([7]; 14.2% long, 27.8 +/- 2.2 s, short 3.7 +/- 1.3 s, 85.8%, 3'-biotin): 341 | binding signal (s (dwell time)) (TRBP recombinant; no noticeable difference from N1, 3'-biotin): 120
